Reference: patent US20120321636A1 (UCB, published 2012)

T1: sclerostin (Homo sapiens (Human), UniProt Q9BQB4 24-213)
T1 construct: also called SOST; Beer
T1 sequence: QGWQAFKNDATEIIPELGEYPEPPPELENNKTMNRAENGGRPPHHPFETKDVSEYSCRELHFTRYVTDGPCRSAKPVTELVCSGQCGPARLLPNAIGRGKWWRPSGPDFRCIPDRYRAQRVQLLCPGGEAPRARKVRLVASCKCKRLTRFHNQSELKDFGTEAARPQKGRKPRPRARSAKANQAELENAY

B1: BMP receptor II-FC fusion protein (Fc fusion, not shown: a dimerising Fc or GST; small tags and cut ends)
chain: SQNQERLCAFKDPYQQDLGIGESRISHENGTILCSKGSTCYGLWEKSKGDINLVKQGCWSHIGDPQECHYEECVVTTTPPSIQNGTYRFCCCSTDLCNVNFTENFPPPDTTPLSPPHSFNRDET
notes: also called BMPR-II
B2: DAN (ligand)
chain: AAPPPINKLALFPDKSAWCEAKNITQIVGHSGCEAKSIQNRACLGQCFSYSVPNTFPQSTESLVHCDSCMPAQSMWEIVTLECPGHEEVPRVDKLVEKILHCSCQACGKEPSHEGLSVYVQGEDGPGSQPGTHPHPHPHPHPGGQTPEPEDPPGAPHTEEEGAED
B3: BMP-6 (ligand, UniProt P22004 382-513, looked up)
chain: QQSRNRSTQSQDVARVSSASDYNSSELKTACRKHELYVSFQDLGWQDWIIAPKGYAANYCDGECSFPLNAHMNATNHAIVQTLVHLMNPEYVPKPCCAPTKLNAISVLYFDDNSNVILKKYRNMVVRACGCH
notes: also called bone morphogenic protein 6

Key:
BMP-6 [1] = target: B3; assay: ELISA-based competition: receptor-Fc against coated sclerostin for BMP-6 (11 nM)
BMP-6 [2] = target: B3; assay: ELISA-based competition: 10-fold molar excess of receptor-Fc against coated sclerostin for BMP-6
BMP-6 [3] = target: B3; assay: ELISA-based competition: receptor-Fc against coated sclerostin for BMP-6
Description: (§1) A 10-fold molar excess of the BMP receptor was sufficient to reduce binding of sclerostin to BMP-6 by approximately 50%. This competition was also observed with a BMP receptor II-FC fusion protein (IC₅₀=36 nM) and DAN (IC₅₀=43 nM).

BMP-6 [4] = target: B3; assay: ELISA-based competition: DAN against coated sclerostin for BMP-6
sclerostin = target: T1, sclerostin; assay: ELISA, BMP-6 on a sclerostin-coated surface (300 ng/well)
Description: as §1

For BMP receptor IA (FC fusion construct), the IC50 (BMP-6 [1]) was 114 nM and the percent reduction of sclerostin binding to BMP-6 at 10-fold molar excess (BMP-6 [2]) was 50%.

B1 showed an IC50 (BMP-6 [3]) of 36 nM.

For B2, the IC50 (BMP-6 [4]) was 43 nM.

B3 showed a Kd (sclerostin) of 3.4 nM.
